The values that follow come from FireProtDB (doi:10.1021/bi701365e).

Several values for one entry are separate records, joined by “and”; a condition that tells them apart may be missing. Equal entries are not always repeated.

The conditions of this data set: Helicobacter pylori (strain ATCC 700392 / 26695), pH 9, Thermal, EPPS 50 mM, reversible: Yes (>80%), whole UniProt chain shown.

B1: Flavodoxin wild type, O25776 (protein)
chain: MGKIGIFFGTDSGNAEAIAEKISKAIGNAEVVDVAKASKEQFNSFTKVILVAPTAGAGDLQTDWEDFLGTLEASDFATKTIGLVGLGDQDTYSETFAEGIFHIYEKAKAGKVVGQTPTDGYHFEASKAVEGGKFVGLVIDEDNQDDLTDERISKWVEQVKGSFA
B1: the “unfolding enthalpy (van 't Hoff)” value runs as follows: (DSC, transition: 3) 121 kJ/mol and 209 kJ/mol; (Fluorescence, transition: 4) 184 kJ/mol.
